According to US8487082B2, “Synthetic scFv analogue to the 6313/G2 (anti angiotensin II type 1 receptor) monoclonal antibody variable regions” (Queen Mary & Westfield College, priority 2008, dated 2013):

How the values were obtained:
MCF-7 cell xenografts = assay: In vivo xenograft assay; conditions: nu/nu mice, 13 nmol/kg
Procedure: Mice were injected s.c. on the right-flank, with 150 μl sterile PBS containing 7.5×10^6 MCF-7 cells. Tumour cells were allowed to grow for 4 weeks without hormone support, thereafter mice received weekly s.c. injections of 17β-oestradiol valerate (0.1 mg/Kg body weight), in sesame oil (Kasukabe et al., Breast Cancer Res. 7(6) R1097-110 (2005)) for a further 8 weeks. Animals were monitored daily for general health, and body weights were measured twice-weekly. Tumour size was measured 3 times per week with slide callipers, and volumes were calculated as (L×W^2)/2, where L and W are the major and minor diameters, respectively. Once tumour volumes reached 150 to 200 mm^3, mice were randomized to treatment and control groups of 8 to 10 per group. Mice were treated by subcutaneous injections of R6313/G2 in sterile PBS (0.1 ml) at doses of 0.4 mg/kg (13 nmol/kg), 0.8 mg/kg (27 nmol/Kg), and 1.36 mg/kg (45.3 nmol/kg) body weight, twice per day for seven days. Control mice received sterile PBS. […] Relative body weights (%) were calculated as (Wt/Wi)×100, where Wt is the body weight at any given time and Wi is the body weight at treatment initiation. Net tumour volume was calculated as Vt-Vi, where Vt is the tumour volume at any given time and Vi is the tumour volume at the start of treatment, and expressed as a percentage of Vi.

MCF-7 cells [1] = assay: In vitro hollow fiber assay; type: cell-based; conditions: MCF-7, in the presence of angiotensin II, 48 h
Procedure: (§1) Hollow Fiber procedures followed the method of Hollingshead. (Hollingshead et al Life Sci 57 131-41 (1995)).
(§2) Polyvinylidene difluoride (PVDF) hollow fibers (500 kDa cut-off, 1 mm inner diameter; Spectrum Europe B.V., Breda, Netherlands) were flushed through with 70% ethanol using a blunt 21 gauge needle and 10 ml syringe. Fibers were then immersed in 70% ethanol for 72 hours, flushed through again with 70% ethanol, then distilled water, and then autoclaved at 131° C. Finally, before loading cell suspensions, fibers were flushed through with RPMI 1640 culture medium. Cells (MCF-7, T47D, and MDA-MB-231) were introduced into fibers at densities of 2.5 to 3.0×10^6 cells/ml. Fibers were then heat-sealed at 2 cm intervals and placed in Petri dishes containing 3 ml of the cell appropriate medium.
(§3) Cell viability was measured using a modified MTT assay. Fibers were incubated in RPMI 1640 with 20% FBS containing 1 mg/ml MTT, and incubated at 37° C. under […], 5% CO2 for 4 hours. The reagent was aspirated, and 2 ml sterile filtered 2.5% protamine sulphate (0.9 g NaCl, 2.5 g protamine sulphate in 100 ml water) was added. Specimens were stored at 4° C. for a minimum of 24 hours in the dark to fix the formazan product. Fresh protamine sulphate (2.5%) was added and fibers were stored for a further 2 to 4 hours at 4° C. Each fiber was transferred to a well in a 24 well plate, cut in half and air-dried overnight, protected from light. Dimethyl sulphoxide (DMSO) (300 μl) was added to each well and the formazan product extracted. An aliquot (190 μl) from each well was transferred to a 96 well plate and absorbance read at 540 nm using a Multiskan Ascent photometric microplate reader (Thermo labsystem). Treated values were calculated as a percentage of the controls.

MDA-MB-231 cells [2] = assay: In vitro hollow fiber assay; type: cell-based; conditions: MDA-MB-231, in the presence of angiotensin II, 48 h
Procedure: as §1, §2, §3

MCF-7 cells [3] = assay: In vivo hollow fiber assay; design: species or system balb/c nu/nu mice
Procedure: as §1, §2
(§4) Cell-loaded hollow fiber segments were incubated at 37° C. in culture medium overnight before implantation into pure strain 5-6 week old female balb/c nu/nu mice. Fibers were implanted into the animals under anaesthesia (2% Isofluorane). Three 2 cm fibers, each containing one of the cell lines MCF-7, T47D, or MDA-MB-231, were implanted at both subcutaneous (s.c.) and intraperitoneal (i.p.) sites into each animal. For i.p. implants, a small incision was made through the skin and musculature of the ventral abdominal wall. Fibers were placed into the peritoneal cavity and both incisions were closed with metallic suture clips (Harvard Instruments, Edenbridge UK). For s.c. implants, a small incision was made dorsally. The fibers were implanted to the left of the dorsal midline in a cranial direction. The small incision was closed with metallic suture clips.
(§5) Mice (n=5/group) with hollow fiber implants were treated with R6313/G2 (0.07 mg/kg (2.5 nmol/kg), and 0.7 mg/kg (25 nmol/kg) in 0.1 ml PBS, subcutaneously) twice per day for six days. Control animals (n=5) received vehicle alone. 24 hours after the last injection, animals were killed by cervical dislocation and the fibers were recovered and transferred to pre-warmed RPMI 1640 medium containing 20% FBS for 30 minutes.
as §3

MDA-MB-231 cells [4] = assay: In vivo hollow fiber assay; design: species or system balb/c nu/nu mice
Procedure: as §1, §2, §4, §5, §3

T47D cells = assay: In vivo hollow fiber assay; design: species or system balb/c nu/nu mice; conditions: i.p. site, 0.7 mg/kg (25 nmol/kg) twice per day
Procedure: as §1, §2, §4, §5, §3

breast cancer cells = assay: Caspase-driven apoptosis (summary statement); type: cell-based
Source text: Cells were harvested using Trypsin/EDTA and counted.

B1: R6313/G2: murine scFv analogue of the 6313/G2 anti-AT1 receptor monoclonal antibody variable domains, SEQ ID NO:15 (protein)
scFv: YAAQPAMAQVKLQQSGPELEKPGASVKISCKASGYSFTGYNMNWVKQSNGKSLEWIGNIDPYYGGTTYNQKFKGKATLTVDKSSSTAYMQLKSLTSEDSAVYYCAREVDYWGQGTTVTVSSGGGGSGGGGSGGGGSDIELTQSPASLAVSLGQRATISYRASKSVSTSGYSYMHWNQQKPGQPPRLLIYLVSNLESGVPARFSGSGSGTDFTLNIHPVEEEDAATYYCQHIRELTRSEGTKLEIKRAAAGAPVPY
modifications: 12D
With B1 the “cancer cell growth, xenograft tumours” value (MCF-7 cell xenografts) was “significantly inhibited cancer cell growth”, the “cell survival in hollow fibers in vitro” value (MCF-7 cells [1]) was “dose dependently inhibited survival” and the “cell survival in hollow fibers in vitro” value (MDA-MB-231 cells [2]) was “dose dependently inhibited survival”. For the same molecule, the “cell survival in hollow fibers in vivo” value (MCF-7 cells [3]; MCF7, i.p. site, 0.07 and 0.7 mg/kg (2.5 and 25 nmol/kg) twice per day) was “inhibited MCF7 cell survival”, the “cell survival in hollow fibers in vivo” value (MCF-7 cells [3]; MCF-7, s.c. site) was “dose dependently inhibited cell survival” and the “cell survival in hollow fibers in vivo” value (MDA-MB-231 cells [4]; MBA MB 231, i.p. site, 0.7 mg/kg (25 nmol/kg) twice per day) was “inhibited”. The “cell survival in hollow fibers in vivo” value (MDA-MB-231 cells [4]; MDA MB 231, s.c. site, highest dose) was “inhibited at the highest dose”, the “cell survival in hollow fibers in vivo” value (T47D cells) was “inhibited” and the caspase-driven apoptosis (breast cancer cells; angiotensin II omitted) was “omission of angiotensin blocks its effects”. The caspase-driven apoptosis (breast cancer cells; in the presence of up to 100 nmol angiotensin II per L) was “enhances caspase-driven apoptosis”.
